Test results taken from US8080523 (dated 2011).

B1: Kv1.3 (other)
chain: MTVVPGDHLLEPEAAGGGGGDPPQGGCGSGGGGGGCDRYEPLPPALPAAGEQDCCGERVVINISGLRFETQLKTLCQFPETLLGDPKRRMRYFDPLRNEYFFDRNRPSFDAILYYYQSGGRIRRPVNVPIDIFSEEIRFYQLGEEAMEKFREDEGFLREEERPLPRRDFQRQVWLLFEYPESSGPARGIAIVSVLVILISIVIFCLETLPEFRDEKDYPASPSQDVFEAANNSTSGAPSGASSFSDPFFVVETLCIIWFSFELLVRFFACPSKATFSRNIMNLIDIVAIIPYFITLGTELAERQGNGQQAMSLAILRVIRLVRVFRIFKLSRHSKGLQILGQTLKASMRELGLLIFFLFIGVILFSSAVYFAEADDPSSGFNSIPDAFWWAVVTMTTVGYGDMHPVTIGGKIVGSLCAIAGVLTIALPVPVIVSNFNYFYHRETEGEEQAQYMHVGSCQHLSSSAEELRKARSNSTLSKSEYMVIEEGGMNHSAFPQTPFKTGNSTATCTTNNNPNSCVNIKKIFTDV
B2: Kv1.1 (other)
chain: MTVMSGENADEASTAPGHPQDGSYPRQADHDDHECCERVVINISGLRFETQLKTLAQFPNTLLGNPKKRMRYFDPLRNEYFFDRNRPSFDAILYYYQSGGRLRRPVNVPLDMFSEEIKFYELGEEAMEKFREDEGFIKEEERPLPEKEYQRQVWLLFEYPESSGPARVIAIVSVMVILISIVIFCLETLPELKDDKDFTGTIHRIDNTTVIYTSNIFTDPFFIVETLCIIWFSFELVVRFFACPSKTDFFKNIMNFIDIVAIIPYFITLGTEIAEQEGNQKGEQATSLAILRVIRLVRVFRIFKLSRHSKGLQILGQTLKASMRELGLLIFFLFIGVILFSSAVYFAEAEEAESHFSSIPDAFWWAVVSMTTVGYGDMYPVTIGGKIVGSLCAIAGVLTIALPVPVIVSNFNYFYHRETEGEEQAQLLHVSSPNLASDSDLSRRSSSTISKSEYMEIEEDMNNSIAHYRQANIRTGNCTTADQNCVNKSKLLTDV

| Binder | Kd (ShK(D3)) | Kd (ShK(L3)) | Kd (ShK(L1)) | Kd (ShK(D2)) |
| --- | --- | --- | --- | --- |
| B1 | 0.07 nM |  |  |  |
| B2 |  | 1.1 nM | 1 nM | 1.1 nM |
